EC50 (half maximal induction) of NF-κB luciferase reporter in HEK293/hTLR5 cells, 24 hr stimulation data for two substances are collected here from article PMC4827055.

The assay concerns the target human Toll-like receptor 5 (TLR5) expressed on HEK293 cells (human) (UniProt O60602).
Chain of UniProt O60602 (O60602 21-858): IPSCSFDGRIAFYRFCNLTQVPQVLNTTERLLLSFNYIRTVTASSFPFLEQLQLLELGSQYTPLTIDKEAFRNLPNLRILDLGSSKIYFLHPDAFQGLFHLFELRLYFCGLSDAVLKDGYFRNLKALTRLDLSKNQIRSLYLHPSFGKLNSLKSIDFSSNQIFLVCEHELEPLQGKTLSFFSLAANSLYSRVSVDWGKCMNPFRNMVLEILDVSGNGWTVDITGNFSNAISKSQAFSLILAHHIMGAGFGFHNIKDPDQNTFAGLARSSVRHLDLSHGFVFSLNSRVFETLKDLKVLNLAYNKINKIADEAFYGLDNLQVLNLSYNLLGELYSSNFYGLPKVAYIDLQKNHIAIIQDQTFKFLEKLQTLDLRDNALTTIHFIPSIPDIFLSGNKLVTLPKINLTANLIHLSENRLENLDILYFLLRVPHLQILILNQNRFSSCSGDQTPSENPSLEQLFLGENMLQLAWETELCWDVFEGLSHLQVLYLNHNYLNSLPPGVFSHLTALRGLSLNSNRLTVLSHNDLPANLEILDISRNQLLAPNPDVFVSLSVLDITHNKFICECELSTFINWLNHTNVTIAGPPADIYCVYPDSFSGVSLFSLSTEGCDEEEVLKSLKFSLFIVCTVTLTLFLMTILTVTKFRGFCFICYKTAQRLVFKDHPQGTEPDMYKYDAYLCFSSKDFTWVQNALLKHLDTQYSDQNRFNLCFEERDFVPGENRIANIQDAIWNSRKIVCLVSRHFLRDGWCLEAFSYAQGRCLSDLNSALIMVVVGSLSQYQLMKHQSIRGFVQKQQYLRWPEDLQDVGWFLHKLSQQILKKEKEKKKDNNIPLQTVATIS

As to “recombinant flagellin (rFliC) from Salmonella enterica serovar Typhimurium (from UniProt P06179 1-495) (natural protein)”, the EC50 (half maximal induction) of NF-κB luciferase reporter in HEK293/hTLR5 cells, 24 hr stimulation was 6.7 pM.
The figure for “recombinant flagellin-E7m fusion protein rFliCE7m (E7m fused at the C-terminus of flagellin) (from UniProt P06179 1-495)” is 23.7 pM.
